Experimental data reported in article PMC7531860.

Biological target: CfaE, tip-localized minor adhesive subunit of CFA/I fimbriae (enterotoxigenic Escherichia coli) (UniProt P25734)
Assay: […], fluorescence at 320 nm; […]

mtCfaA (CfaA variant with the triple residue substitution T112I/L114I/V116I on the G1 strand) (natural protein)
mid-point dissociation concentration of GdnCl: 0.966 M
